Reference: patent US10696728B2, “Polypeptides, related nucleic acids, and their uses for cell modulation and treatments” (priority 2014, dated 2020)
“Also recorded” adds a separate entry of the source.

Assays:
CaMKii = experiment: Western blot for phosphorylation of CaMKii (threonine 286) in HEK cells; assay type: cell-based; conditions: for level of p-CaMKii following RF stimulation: 36 hrs after transfection, FIG. 13
Procedure: HEK cells were transiently transfected with TRPv1.D5. 36 hrs after transfection, TRPv1.D5 cells were exposed to RF. At time points indicated, cells were lysed and protein analyzed by western blot for phosphorylation of CaMKii on threonine^286 (p-CaMKii) using phospho-specific antibodies (top panel). Control cells (0 min) had very little detectable p-CaMKii.

wild-type human TRPV1 = molecular target: T1, wild-type human TRPV1 (Homo sapiens, UniProt Q8NER1); experiment: Heart defects in chick embryos with wild-type human TRPV1 exposed to capsaicin; assay type: in vivo, chicken; conditions: data not shown
T1 construct: expressed in transfected cells; host or cells: chick embryo (neural crest cells, in ovo)

HEK cells = experiment: GCaMP fluorescence (Ca2+ influx) in HEK cells at three levels of applied RF field; assay type: cell-based; conditions: for increase of green fluorescence emitted by GCAMP, all cells (both green and red) / increase of green fluorescence emitted by GCAMP, cells that visually became brighter: FIG. 11
Procedure: Expression of TRPv1.D5 in HEK cells: HEK cell expression was performed using transient transfection. Briefly, 1 μg of plasmid was mixed with Lipofectamine LTX with PLUS reagent (Life Technologies) following the manufacturer instructions. Expression was confirmed by standard western blot technique. Once expression was confirmed, pLVX.TRPv1.D5 was co-transfected with a plasmid containing GCaMP6 (addgene). GCaMP6 is a genetically encoded Calcium indicator. Its green fluorescence increases in the presence of increasing amounts of intracellular calcium. Green fluorescence was analyzed in HEK cells using MetaFluor Analyst Software (Molecular Devices) following manufacture instructions. Transfected cells were analyzed prior to RF exposure and during 10 minutes of RF exposure, as discussed below.
The intensity of red fluorescence protein (RFP) indicates the cells that expressed TRPV1.D5 with mCherry.
FIG. 11 quantifies the fluorescence intensity at three levels of applied electromagnetic fields. Red fluorescence emitted by mCherry (“Red Fluorescence”) increased by less than 6.5% at the end of experiments. Green fluorescence (GCaMP3) emitted by GCAMP in cells without TRPV1.D5 (“GCAMP-TRPV1 (green only, not red)”) increased by less than 6.9%.

human ferritin = experiment: Subcellular distribution of ferritin (FTH1-mCherry) in HEK-293 cells, confocal imaging; assay type: cell-based; conditions: co-transfection with FTH1-mCherry in HEK-293, FIG. 9a/9b
Description: TRPV1.D5 redistributes endogenous ferritin to membranes. To visualize subcellular distribution of ferritin, we fused human ferritin with mCherry (FTH1-mCherry) at the C-terminal. Expression of FTH1-mCherry in HEK-293 yielded normal cytoplasmic distribution.

HEK-293 cells = experiment: GCaMP fluorescence in mCherry+ HEK-293 cells in response to RF (190 MHz Helmholtz coil) or capsaicin; assay type: cell-based; conditions: for GCaMP response to capsaicin: 1 μM capsaicin; for Ca2+ permeability following RF: RF stimulation 190 MHz, FIG. 12
Description: A Helmholtz coil (190 MHz) was placed over a petri dish loaded with HEK-293 cells. RF power was supplied by a broadband (0-400 MHz) signal generator and amplified using a 10-W linear amplifier. We used GCaMP as an intracellular calcium indicator whose intensity is proportional to the amount of bound calcium. Using widefield fluorescent microscopy, we measured the change in GCaMP fluorescence in mCherry+ cells expressing TRPV1 and TRPV1.D5 in response to RF stimulation.

chick embryos = experiment: Congenital heart defects in chick embryos with channel expression in neural crest cells; assay type: in vivo, chicken
[1] = system: Neural Crest Cells (NCCs) in chicken embryos; experiment: p-CaMKii immunostaining in neural crest cells of chick embryos after in ovo electroporation; assay type: in vivo
Description: To determine if Ca^2+ flow could be modulated in vivo, we targeted wild-type TRPV1 or TRPV1.D5 expression to pre-migratory Neural Crest Cells (NCCs) in chicken embryos. NCC migration is dependent on control of Ca^2+ influx. (See, Hutson et al. 2003) NCCs transverse long distances through the embryo to enable proper heart development (e.g. outflow tracts). We utilized RF to increase Ca^2+ flow in NCCs while these cells were migrating out of the dorsal neural tube.
TRPV1.D5 was cloned into pLVX-EF1α-IRES-mCherry vectors. Plasmid DNA was then electroporated in ovo into the dorsal neural tube of chick embryos at Hamburger-Hamilton stage 9-11 to target premigratory NCCs. Twenty four hours later, expression of mCherry was confirmed and eggs were then subjected to no RF (FIG. 14a, control) or 10 minutes of RF (FIG. 14b and FIG. 14c). Immediately afterwards, embryos were removed and fixed in paraformaldehyde. These embryos were cryosectioned and stained for mCherry to identify TRPv1.D5+ cells and phosphorylated CaMKii (p-CaMKii) using an anti-Phospho-CaMKII antibody.

ferritin = experiment: Co-immunoprecipitation of ferritin with Flag-tagged channel; assay type: binding, human
Sequence of ferritin (P02794 whole entry): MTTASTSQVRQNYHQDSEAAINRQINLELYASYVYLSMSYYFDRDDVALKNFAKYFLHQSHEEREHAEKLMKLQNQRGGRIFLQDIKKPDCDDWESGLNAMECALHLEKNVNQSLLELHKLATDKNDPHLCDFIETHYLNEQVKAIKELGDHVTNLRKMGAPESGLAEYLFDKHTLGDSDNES

Sequence of human ferritin (P02794 whole entry, the tested form may be a part): as the sequence (P02794 whole entry) above
T1 sequence (Q8NER1 whole entry): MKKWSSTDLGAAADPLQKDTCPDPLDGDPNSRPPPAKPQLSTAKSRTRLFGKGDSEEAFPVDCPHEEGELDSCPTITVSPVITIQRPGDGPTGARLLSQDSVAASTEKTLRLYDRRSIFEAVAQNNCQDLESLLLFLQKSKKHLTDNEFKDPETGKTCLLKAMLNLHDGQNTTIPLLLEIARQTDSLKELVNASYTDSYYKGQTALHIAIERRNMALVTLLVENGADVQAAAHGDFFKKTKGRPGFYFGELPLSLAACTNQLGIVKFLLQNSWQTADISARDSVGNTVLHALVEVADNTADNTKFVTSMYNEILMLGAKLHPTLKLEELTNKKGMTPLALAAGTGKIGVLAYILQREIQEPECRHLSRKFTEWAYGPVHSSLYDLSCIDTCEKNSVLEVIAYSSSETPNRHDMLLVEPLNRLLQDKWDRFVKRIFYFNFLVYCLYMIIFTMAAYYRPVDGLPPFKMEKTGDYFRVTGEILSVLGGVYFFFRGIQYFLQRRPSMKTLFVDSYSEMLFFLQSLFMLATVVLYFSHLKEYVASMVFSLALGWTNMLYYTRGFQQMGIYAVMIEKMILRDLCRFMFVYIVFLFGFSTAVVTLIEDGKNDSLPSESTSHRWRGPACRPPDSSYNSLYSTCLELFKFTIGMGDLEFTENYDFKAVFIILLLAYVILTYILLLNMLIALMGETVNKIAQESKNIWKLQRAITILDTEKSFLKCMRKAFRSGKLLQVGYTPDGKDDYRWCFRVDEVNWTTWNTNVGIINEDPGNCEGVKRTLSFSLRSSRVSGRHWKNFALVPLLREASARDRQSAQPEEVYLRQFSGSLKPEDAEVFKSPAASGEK

Molecule | increase of green fluorescence emitted by GCAMP, all cells (both green and red) (HEK cells; high RF (132 G)) [%] | increase of green fluorescence emitted by GCAMP, cells that visually became brighter (HEK cells; high RF (132 G)) [%] | increase of green fluorescence emitted by GCAMP, all cells (both green and red) (HEK cells; low RF (62 G)) [%] | increase of green fluorescence emitted by GCAMP, cells that visually became brighter (HEK cells; low RF (62 G)) [%] | subcellular distribution of FTH1-mCherry (ferritin) (human ferritin) | GCaMP response to capsaicin (HEK-293 cells) | Ca2+ permeability following RF (HEK-293 cells) | further results
COc1cc(CNC(=O)CCCC/C=C/C(C)C)ccc1O [capsaicin, reference compound] | – | – | – | – | – | – | – | phosphorylation of CaMKii (CaMKii; 1 μm Capsaicin (Cap+), TRPv1.D5 transfected HEK cells): induced phosphorylation of CaMKii; replication of the defects caused by TRPV1.D5+RF (wild-type human TRPV1): replicated
TRPV1: Transient Receptor Potential channel Vanilloid 1, full length, amplified from mouse spinal cord cDNA; wild-type comparison channel without D5 (protein, Flag tag; Mouse TRPV1) MEKWASLDSDESEPPAQENSCPDPPDRDPNSKPPPAKPHIFATRSRTRLFGKGDSEEASPMDCPYEEGGLASCPIITVSSVVTLQRSVDGPTCLRQTSQDSVSTGVETPPRLYDRRSIFDAVAQSNCQELESLLSFLQKSKKRLTDSEFKDPETGKTCLLKAMLNLHNGQNDTIALLLDIARKTDSLKQFVNASYTDSYYKGQTALHIAIERRNMALVTLLVENGADVQAAANGDFFKKTKGRPGFYFGELPLSLAACTNQLAIVKFLLQNSWQPADISARDSVGNTVLHALVEVADNTADNTKFVTNMYNEILILGAKLHPTLKLEELTNKKGLTPLALAASSGKIGVLAYILQREIHEPECRHLSRKFTEWAYGPVHSSLYDLSCIDTCEKNSVLEVIAYSSSETPNRHDMLLVEPLNRLLQDKWDRFVKRIFYFNFFVYCLYMIIFTTAAYYRPVEGLPPYKLNNTVGDYFRVTGEILSVSGGVYFFFRGIQYFLQRRPSLKSLFVDSYSEILFFVQSLFMLVSVVLYFSHRKEYVASMVFSLAMGWTNMLYYTRGFQQMGIYAVMIEKMILRDLCRFMFVYLVFLFGFSTAVVTLIEDGKNNSLPVESPPHKCRGSACRPGNSYNSLYSTCLELFKFTIGMGDLEFTENYDFKAVFIILLLAYVILTYILLLNMLIALMGETVNKIAQESKNIWKLQRAITILDTEKSFLKCMRKAFRSGKLLQVGFTPDGKDDFRWCFRVDEVNWTTWNTNVGIINEDPGNCEGVKRTLSFSLRSGRVSGRNWKNFALVPLLRDASTRDRHSTQPEEVQLKHYTGSLKPEDAEVFKDSMAPGEK | 22.2 | 151.3 | 9.0 | 48.3 | cytoplasmic distribution was not altered | responded equally well | only TRPV1.D5 induced a transient increase | development of heart defects (chick embryos; with or without RF): Neither the TRPV1 embryos (with or without RF) nor the non-RF treated TRPV1.D5 embryos developed any defects
TRPV1.D5: mouse TRPV1 linked to human domain 5 of kininogen 1 (SEQ ID NO:2), fusion protein expressed from pLVX vector (protein, Flag tag; mouse/human chimera TRPv1.D5) MEKWASLDSDESEPPAQENSCPDPPDRDPNSKPPPAKPHIFATRSRTRLFGKGDSEEASPMDCPYEEGGLASCPIITVSSVVTLQRSVDGPTCLRQTSQDSVSTGVETPPRLYDRRSIFDAVAQSNCQELESLLSFLQKSKKRLTDSEFKDPETGKTCLLKAMLNLHNGQNDTIALLLDIARKTDSLKQFVNASYTDSYYKGQTALHIAIERRNMALVTLLVENGADVQAAANGDFFKKTKGRPGFYFGELPLSLAACTNQLAIVKFLLQNSWQPADISARDSVGNTVLHALVEVADNTADNTKFVTNMYNEILILGAKLHPTLKLEELTNKKGLTPLALAASSGKIGVLAYILQREIHEPECRHLSRKFTEWAYGPVHSSLYDLSCIDTCEKNSVLEVIAYSSSETPNRHDMLLVEPLNRLLQDKWDRFVKRIFYFNFFVYCLYMIIFTTAAYYRPVEGLPPYKLNNTVGDYFRVTGEILSVSGGVYFFFRGIQYFLQRRPSLKSLFVDSYSEILFFVQSLFMLVSVVLYFSHRKEYVASMVFSLAMGWTNMLYYTRGFQQMGIYAVMIEKMILRDLCRFMFVYLVFLFGFSTAVVTLIEDGKNNSLPVESPPHKCRGSACRPGNSYNSLYSTCLELFKFTIGMGDLEFTENYDFKAVFIILLLAYVILTYILLLNMLIALMGETVNKIAQESKNIWKLQRAITILDTEKSFLKCMRKAFRSGKLLQVGFTPDGKDDFRWCFRVDEVNWTTWNTNVGIINEDPGNCEGVKRTLSFSLRSGRVSGRNWKNFALVPLLRDASTRDRHSTQPEEVQLKHYTGSLKPEDAEVFKDSMAPGEKCSRVSPPHTSMAPAQDEERDSGKEQGHTRRHDWGHEKQRKHNLGHGHKHERDQGHGHQRGHGLGHGHEQQHGLGHGHKFKLDDDLEHQGGHVLDHGHKHKHGHGHGKHKNKGKKNGKHNGWKTEHLASL | 22.2 | 151.3 | 9.0 | 48.3 | redistributed FTH1-mCherry to cell membranes | responded equally well | induced a transient increase in Ca^2+ permeability; also recorded: increases Ca^2+ ion modulation | GCAMP3 intensity on application of RF/EM fields (HEK cells; with vs without RF, FIG. 10): increased in the presence of RF; also recorded: increased GCAMP3 intensity; p-CaMKii in neural crest cells ([1]; 10 minutes of RF, FIG. 14b/14c): clear co-localization of the mutant channel and p-CaMKii; p-CaMKii in neural crest cells ([1]; no RF (control animals), FIG. 14a): did not observe detectable levels of p-CaMKii; co-immunoprecipitation of Ferritin-mCherry (ferritin; Flag-labelled channel, FIG. 9e, listed as Flag-TRPV1.D5): co-immunoprecipitates; pull-down of ferritin-mCherry and endogenous ferritin by immunoprecipitation (ferritin; data not shown): successfully pulled down both ferritin-mCherry and endogenous ferritin; time of peak p-CaMKii level following RF stimulation (CaMKii; TRPv1.D5+ HEK cells): 10 min; level of p-CaMKii following RF stimulation (CaMKii; TRPv1.D5+ HEK cells): induces p-CaMKii; level of p-CaMKii following RF stimulation (CaMKii; TRPv1.D5+ HEK cells, listed as TRPv1.D5): increases; heart defects on RF activation in cardiac neural crest cells (chick embryos; RF for 10 minutes, FIG. 15): results in heart defects; embryos that developed congenital heart defects (VSD, double outlet right ventricle, transposition of great vessels) (chick embryos; RF-treated, day 10 post experiments): ~60%; development of heart defects (chick embryos; non-RF treated): nor the non-RF treated TRPV1.D5 embryos developed any defects
